Experimental data taken from patent publication US7211565 (ESPERION THERAPEUTICS, dated 2007).
Square brackets hold non-standard residues; d marks the D form. Ends that are not written are not given here.

Target: T1, lecithin:cholesterol acyltransferase (LCAT), purified from human plasma (human, UniProt P04180 25-440)
T1 sequence (looked up): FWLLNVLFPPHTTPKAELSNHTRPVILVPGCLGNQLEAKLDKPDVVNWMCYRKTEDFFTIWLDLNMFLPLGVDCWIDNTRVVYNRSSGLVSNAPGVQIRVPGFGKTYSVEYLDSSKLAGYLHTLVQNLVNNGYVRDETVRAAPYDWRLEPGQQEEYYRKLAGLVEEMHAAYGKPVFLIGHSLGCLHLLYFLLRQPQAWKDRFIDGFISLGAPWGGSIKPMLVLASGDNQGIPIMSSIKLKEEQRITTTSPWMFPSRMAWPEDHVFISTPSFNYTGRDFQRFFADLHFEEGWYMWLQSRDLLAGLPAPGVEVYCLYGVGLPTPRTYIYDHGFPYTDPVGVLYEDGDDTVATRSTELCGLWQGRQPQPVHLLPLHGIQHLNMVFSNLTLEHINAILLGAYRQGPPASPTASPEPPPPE
Assay: cell-based or functional assay

ACTIVITY (%) LCAT: 19%
Binder: [dP]LFRELLNELLEALKQKLK [peptide 55 (SEQ ID NO:55)]
